Experimental data from paper doi:10.1101/2021.08.20.457142.

B1: MKK7 D-site peptide (second D-site) / JNK1 alpha1 (MAPK8 isoform 1) L198A, full length (parent complex)
chain 1: SQPQRPRPTLQLPLANEAFEQP
chain 2: MSRSKRDNNFYSVEIGDSTFTVLKRYQNLKPIGSGAQGIVCAAYDAILERNVAIKKLSRPFQNQTHAKRAYRELVLMKCVNHKNIIGLLNVFTPQKSLEEFQDVYIVMELMDANLCQVIQMELDHERMSYLLYQMLCGIKHLHSAGIIHRDLKPSNIVVKSDCTLKILDFGLARTAGTSFMMTPYVVTRYYRAPEVIAGMGYKENVDLWSVGCIMGEMVCHKILFPGRDYIDQWNKVIEQLGTPCPEFMKKLQPTVRTYVENRPKYAGYSFEKLFPDVLFPADSEHNKLKASQARDLLSKMLVIDASKRISVDEALQHPYINVWYDPSEAEAPPPKIPDKQLDEREHTIEEWKELIYKEVMDLEERTKNGVIRGQPSPLAQVQQ

Variants of: B1

Variant	screen value
chain 1 L10S	-0.668 Z-score of the enrichment rate within one screen of 711 sequences
chain 1 L10N	-0.671 Z-score of the enrichment rate within one screen of 711 sequences
chain 1 L10A	-0.392 Z-score of the enrichment rate within one screen of 711 sequences
chain 1 L10R	-0.363 Z-score of the enrichment rate within one screen of 711 sequences
chain 1 L10T	-0.588 Z-score of the enrichment rate within one screen of 711 sequences
chain 1 L10P	-0.494 Z-score of the enrichment rate within one screen of 711 sequences
chain 1 L10V	-0.341 Z-score of the enrichment rate within one screen of 711 sequences
chain 1 L10G	-0.672 Z-score of the enrichment rate within one screen of 711 sequences
chain 1 P8A, chain 1 P13A	0.299 Z-score of the enrichment rate within one screen of 711 sequences
chain 1 P3A, chain 1 N16A	1.34 Z-score of the enrichment rate within one screen of 711 sequences
chain 1 P3I	1.41 Z-score of the enrichment rate within one screen of 711 sequences
chain 1 P3V	1.59 Z-score of the enrichment rate within one screen of 711 sequences
chain 1 P3D	1.22 Z-score of the enrichment rate within one screen of 711 sequences
chain 1 P3F	1.46 Z-score of the enrichment rate within one screen of 711 sequences
chain 1 P3N	1.46 Z-score of the enrichment rate within one screen of 711 sequences
chain 1 P3M	1.81 Z-score of the enrichment rate within one screen of 711 sequences
chain 1 P8A, chain 1 Q11A	0.343 Z-score of the enrichment rate within one screen of 711 sequences
chain 1 L12N	-0.321 Z-score of the enrichment rate within one screen of 711 sequences
chain 1 L12P	-0.637 Z-score of the enrichment rate within one screen of 711 sequences
chain 1 L12E	-0.637 Z-score of the enrichment rate within one screen of 711 sequences
chain 1 L12V	-0.205 Z-score of the enrichment rate within one screen of 711 sequences
chain 1 L12A	-0.706 Z-score of the enrichment rate within one screen of 711 sequences
chain 1 L12C	-0.457 Z-score of the enrichment rate within one screen of 711 sequences
chain 1 L12I	0.938 Z-score of the enrichment rate within one screen of 711 sequences
chain 1 P6F	1.06 Z-score of the enrichment rate within one screen of 711 sequences

Variant	screen value
chain 1 P6A	1.29 Z-score of the enrichment rate within one screen of 711 sequences
chain 1 P6H	1.12 Z-score of the enrichment rate within one screen of 711 sequences
chain 1 P6C	0.713 Z-score of the enrichment rate within one screen of 711 sequences
chain 1 P6L	1.25 Z-score of the enrichment rate within one screen of 711 sequences
chain 1 P6T	1.07 Z-score of the enrichment rate within one screen of 711 sequences
chain 1 P6V	0.968 Z-score of the enrichment rate within one screen of 711 sequences
chain 1 P6Q	1.26 Z-score of the enrichment rate within one screen of 711 sequences
chain 1 N16C	1.62 Z-score of the enrichment rate within one screen of 711 sequences
chain 1 N16A	1.29 Z-score of the enrichment rate within one screen of 711 sequences
chain 1 N16H	1.43 Z-score of the enrichment rate within one screen of 711 sequences
chain 1 N16G	1.5 Z-score of the enrichment rate within one screen of 711 sequences
chain 1 N16P	0.929 Z-score of the enrichment rate within one screen of 711 sequences
chain 1 N16L	1.52 Z-score of the enrichment rate within one screen of 711 sequences
chain 1 N16V	1.95 Z-score of the enrichment rate within one screen of 711 sequences
chain 1 N16E	1.28 Z-score of the enrichment rate within one screen of 711 sequences
chain 1 N16W	2.16 Z-score of the enrichment rate within one screen of 711 sequences
chain 1 N16T	1.34 Z-score of the enrichment rate within one screen of 711 sequences
chain 1 P8A, chain 1 L14A	-0.643 Z-score of the enrichment rate within one screen of 711 sequences
chain 1 L14T	0.9 Z-score of the enrichment rate within one screen of 711 sequences
chain 1 L14R	0.833 Z-score of the enrichment rate within one screen of 711 sequences
chain 1 L14D	0.409 Z-score of the enrichment rate within one screen of 711 sequences
chain 1 L14A	0.48 Z-score of the enrichment rate within one screen of 711 sequences
chain 1 L14F	1.33 Z-score of the enrichment rate within one screen of 711 sequences
chain 1 L14I	1.9 Z-score of the enrichment rate within one screen of 711 sequences
chain 1 L14K	0.866 Z-score of the enrichment rate within one screen of 711 sequences

Variant	screen value
chain 1 P8I	0.845 Z-score of the enrichment rate within one screen of 711 sequences
chain 1 P8C	0.83 Z-score of the enrichment rate within one screen of 711 sequences
chain 1 P8K	1.01 Z-score of the enrichment rate within one screen of 711 sequences
chain 1 P8L	1.88 Z-score of the enrichment rate within one screen of 711 sequences
chain 1 P8F	1.67 Z-score of the enrichment rate within one screen of 711 sequences
chain 1 P8M	2.24 Z-score of the enrichment rate within one screen of 711 sequences
chain 1 L10A, chain 1 P13A	-0.374 Z-score of the enrichment rate within one screen of 711 sequences
chain 1 L10A, chain 1 L14A	-0.882 Z-score of the enrichment rate within one screen of 711 sequences
chain 1 P3A, chain 1 P6A	0.9 Z-score of the enrichment rate within one screen of 711 sequences
chain 1 A15Q	1.51 Z-score of the enrichment rate within one screen of 711 sequences
chain 1 A15E	1.37 Z-score of the enrichment rate within one screen of 711 sequences
chain 1 A15I	0.806 Z-score of the enrichment rate within one screen of 711 sequences
chain 1 A15C	1.49 Z-score of the enrichment rate within one screen of 711 sequences
chain 1 A15V	1.42 Z-score of the enrichment rate within one screen of 711 sequences
chain 1 A15W	1.84 Z-score of the enrichment rate within one screen of 711 sequences
chain 1 A15F	1.59 Z-score of the enrichment rate within one screen of 711 sequences
chain 1 A15K	1.73 Z-score of the enrichment rate within one screen of 711 sequences
chain 1 A15S	1.46 Z-score of the enrichment rate within one screen of 711 sequences
chain 1 A15T	1.58 Z-score of the enrichment rate within one screen of 711 sequences
chain 1 P6A, chain 1 L12A	-0.68 Z-score of the enrichment rate within one screen of 711 sequences
chain 1 P8A, chain 1 T9A	0.477 Z-score of the enrichment rate within one screen of 711 sequences
chain 1 P3A, chain 1 R5A	0.535 Z-score of the enrichment rate within one screen of 711 sequences
chain 1 L12A, chain 1 P13A	-0.381 Z-score of the enrichment rate within one screen of 711 sequences
chain 1 P3A, chain 1 P8A	0.357 Z-score of the enrichment rate within one screen of 711 sequences
chain 1 P8A, chain 1 L10A	-0.67 Z-score of the enrichment rate within one screen of 711 sequences

Other lines, results leading:

screen value	Variant
0.0948 Z-score of the enrichment rate within one screen of 711 sequences	chain 1 Q4A, chain 1 R7A
0.748 Z-score of the enrichment rate within one screen of 711 sequences	chain 1 R5A, chain 1 P13A
0.257 Z-score of the enrichment rate within one screen of 711 sequences	chain 1 R5A, chain 1 T9A
0.359 Z-score of the enrichment rate within one screen of 711 sequences	chain 1 Q4A, chain 1 R5A
0.263 Z-score of the enrichment rate within one screen of 711 sequences	chain 1 R5A
0.07 Z-score of the enrichment rate within one screen of 711 sequences	chain 1 R5E
0.845 Z-score of the enrichment rate within one screen of 711 sequences	chain 1 R5W
0.594 Z-score of the enrichment rate within one screen of 711 sequences	chain 1 R5P
0.568 Z-score of the enrichment rate within one screen of 711 sequences	chain 1 R5V
0.772 Z-score of the enrichment rate within one screen of 711 sequences	chain 1 R5I
-0.21 Z-score of the enrichment rate within one screen of 711 sequences	chain 1 R5D
0.293 Z-score of the enrichment rate within one screen of 711 sequences	chain 1 R5A, chain 1 P8A
1.52 Z-score of the enrichment rate within one screen of 711 sequences	chain 1 P13Q
1.25 Z-score of the enrichment rate within one screen of 711 sequences	chain 1 P13C
1.22 Z-score of the enrichment rate within one screen of 711 sequences	chain 1 P13V
1.44 Z-score of the enrichment rate within one screen of 711 sequences	chain 1 P13H
1.22 Z-score of the enrichment rate within one screen of 711 sequences	chain 1 P13S
1.38 Z-score of the enrichment rate within one screen of 711 sequences	chain 1 P13L
1.87 Z-score of the enrichment rate within one screen of 711 sequences	chain 1 P13N
1.95 Z-score of the enrichment rate within one screen of 711 sequences	chain 1 P13D
-0.406 Z-score of the enrichment rate within one screen of 711 sequences	chain 1 R5A, chain 1 L14A
-0.522 Z-score of the enrichment rate within one screen of 711 sequences	chain 1 R5A, chain 1 L12A
0.344 Z-score of the enrichment rate within one screen of 711 sequences	chain 1 R5A, chain 1 Q11A
-0.277 Z-score of the enrichment rate within one screen of 711 sequences	chain 1 R7A, chain 1 P8A
-0.162 Z-score of the enrichment rate within one screen of 711 sequences	chain 1 R5A, chain 1 R7A

screen value	Variant
-0.345 Z-score of the enrichment rate within one screen of 711 sequences	chain 1 R7A, chain 1 L14A
-0.492 Z-score of the enrichment rate within one screen of 711 sequences	chain 1 R7A, chain 1 L12A
1.24 Z-score of the enrichment rate within one screen of 711 sequences	chain 1 T9L
0.507 Z-score of the enrichment rate within one screen of 711 sequences	chain 1 T9E
1.06 Z-score of the enrichment rate within one screen of 711 sequences	chain 1 T9M
0.994 Z-score of the enrichment rate within one screen of 711 sequences	chain 1 T9Q
1.15 Z-score of the enrichment rate within one screen of 711 sequences	chain 1 T9Y
1.34 Z-score of the enrichment rate within one screen of 711 sequences	chain 1 T9H
1.43 Z-score of the enrichment rate within one screen of 711 sequences	chain 1 T9F
1.21 Z-score of the enrichment rate within one screen of 711 sequences	chain 1 T9W
1.27 Z-score of the enrichment rate within one screen of 711 sequences	chain 1 T9C
0.971 Z-score of the enrichment rate within one screen of 711 sequences	chain 1 P8W
0.584 Z-score of the enrichment rate within one screen of 711 sequences	chain 1 P8N
0.848 Z-score of the enrichment rate within one screen of 711 sequences	chain 1 P8V
0.499 Z-score of the enrichment rate within one screen of 711 sequences	chain 1 P8Q
-0.742 Z-score of the enrichment rate within one screen of 711 sequences	chain 1 T9A, chain 1 L12A
0.334 Z-score of the enrichment rate within one screen of 711 sequences	chain 1 R7A, chain 1 N16A
1.2 Z-score of the enrichment rate within one screen of 711 sequences	chain 1 Q4A, chain 1 P13A
1.38 Z-score of the enrichment rate within one screen of 711 sequences	chain 1 Q11A, chain 1 P13A
-0.687 Z-score of the enrichment rate within one screen of 711 sequences	chain 1 R5A, chain 1 L10A
-0.57 Z-score of the enrichment rate within one screen of 711 sequences	chain 1 Q4A, chain 1 L10A
0.697 Z-score of the enrichment rate within one screen of 711 sequences	chain 1 Q4A, chain 1 P8A
1.11 Z-score of the enrichment rate within one screen of 711 sequences	chain 1 P13A, chain 1 N16A
0.478 Z-score of the enrichment rate within one screen of 711 sequences	chain 1 R7P
-0.371 Z-score of the enrichment rate within one screen of 711 sequences	chain 1 R7E

screen value	Variant
0.788 Z-score of the enrichment rate within one screen of 711 sequences	chain 1 R7K
0.372 Z-score of the enrichment rate within one screen of 711 sequences	chain 1 R7L
0.194 Z-score of the enrichment rate within one screen of 711 sequences	chain 1 R7V
-0.481 Z-score of the enrichment rate within one screen of 711 sequences	chain 1 R7G
-0.0451 Z-score of the enrichment rate within one screen of 711 sequences	chain 1 R7Q
0.323 Z-score of the enrichment rate within one screen of 711 sequences	chain 1 R7M
0.221 Z-score of the enrichment rate within one screen of 711 sequences	chain 1 R7I
-0.0352 Z-score of the enrichment rate within one screen of 711 sequences	chain 1 R7N
0.016 Z-score of the enrichment rate within one screen of 711 sequences	chain 1 R7A
0.186 Z-score of the enrichment rate within one screen of 711 sequences	chain 1 R7F
0.351 Z-score of the enrichment rate within one screen of 711 sequences	chain 1 R5A, chain 1 P6A
1.4 Z-score of the enrichment rate within one screen of 711 sequences	chain 1 Q4F
1.26 Z-score of the enrichment rate within one screen of 711 sequences	chain 1 Q4P
1.47 Z-score of the enrichment rate within one screen of 711 sequences	chain 1 Q4L
1.36 Z-score of the enrichment rate within one screen of 711 sequences	chain 1 Q4I
1.67 Z-score of the enrichment rate within one screen of 711 sequences	chain 1 Q4Y
2.17 Z-score of the enrichment rate within one screen of 711 sequences	chain 1 Q11W
1.43 Z-score of the enrichment rate within one screen of 711 sequences	chain 1 Q11C
1.79 Z-score of the enrichment rate within one screen of 711 sequences	chain 1 Q11N
1.51 Z-score of the enrichment rate within one screen of 711 sequences	chain 1 Q11I
1.43 Z-score of the enrichment rate within one screen of 711 sequences	chain 1 Q11E
2.41 Z-score of the enrichment rate within one screen of 711 sequences	chain 1 Q11Y
2.32 Z-score of the enrichment rate within one screen of 711 sequences	chain 1 Q11T
1.89 Z-score of the enrichment rate within one screen of 711 sequences	chain 1 Q11H
0.875 Z-score of the enrichment rate within one screen of 711 sequences	chain 1 Q11G
